Measurements: US12115264B2, “Sterilization and filtration of peptide compositions” (3-D Matrix, Ltd., priority 2014, dated 2024)
Where no end group is shown, it is not given here.

Experiments:
Type in all cases: physicochemical
[1] = Shear flow test (rheometer DHR-1, 20 mm plates); conditions: for yield stress (shear flow test): shear rate 0.003 to 1000
Protocol: Shear flow tests were performed on peptide solutions using a rheometer (DHR-1, TA Instruments) with 20 mm plates. Results are shown in FIG. 9 for 2.5% RADA16 (SEQ ID NO:1) solutions and FIG. 10 for 1.5% IEIK13 (SEQ ID NO:3) solutions. […] That is, as shear rate increased, their viscosities were dramatically dropped. […] The yield stress was about 40 Pa for 2.5% RADA16 (SEQ ID NO:1) solution and about 60 Pa for 1.5% IEIK13 (SEQ ID NO:3) solution.

[2] = Time sweep tests (rheological strength) before and after autoclave treatment; conditions: time sweep test
Protocol: Rheological properties of certain peptide compositions were determined before and after autoclaving.

[3] = Rheological properties of peptide solutions at selected concentrations; conditions: for Loss Modulus (G″) / Storage Modulus (G′): at 1 Pa of oscillation stress; for Max. Viscosity (max η′): from viscosity plots at the range of measured stress
Protocol: Rheological properties were determined for a variety of peptide solutions. […] For example 2% KLD12 (SEQ ID NO:2), 2.5% KLD12 (SEQ ID NO:2), and 1.5% IEIK13 (SEQ ID NO:3) solutions have 2, 3.4, and 3.2 times higher maximum viscosities than 2.5% RADA16 (SEQ ID NO:1), respectively.

[4] = Storage modulus recovery after injection through 30-gauge needle
Protocol: RADA16 (SEQ ID NO:1) was injected through 30-gauge needle so that applied shear stress reduced stiffness of the peptides. The measurements were started 1 minute after the injection.
KLD12 (SEQ ID NO:2) was injected through 30-gauge needle so that the applied shear stress reduced stiffness of the peptides. The measurements were started 1 minute after the injection.
IEIK13 (SEQ ID NO:3) was injected through 30-gauge needle so that the applied shear stress reduced stiffness of the peptides. The measurements were started 1 minute after the injection.
The percentages of recovery back to the original storage modulus at 1 min and 20 min after injection peptide compositions through a 30 gauge needle are listed in Table 2. The recovery rate of IEIK13 (specifically, of a […]; SEQ ID NO:3) was the fastest among the peptide solutions, showing 100% recovery to the original storage modulus in 20 min. […] In some non-limiting embodiments, it may take about 12 to 48 hours for full recovery to an original modulus after passage through a needle (e.g., injection).
Rheological measurements were performed for RADA16 (SEQ ID NO:1) and IEIK13 (SEQ ID NO:3) solutions after injecting them through 30 gauge needles. […] The results are shown in FIG. 6 for RADA16 (SEQ ID NO:1), FIG. 7 for KLD12 (SEQ ID NO:2), and FIG. 8 for IEIK13 (SEQ ID NO:3).

[5] = Apparent viscosity change after passage through membrane shear-thinning unit (container-inversion test)
Source text: The top row includes pictures of 2.5% KLD12 (SEQ ID NO:2). The bottom row includes pictures of 1.5% IEIK13 (SEQ ID NO:3). The solutions in the most left column stay on the top of the vials. The solutions in the most right column (after applying shear stress) have low viscosity, so that most materials are located at the bottom of vials.
To examine the effect of pore size in the shear-thinning unit on viscosity change of viscous peptide solutions, 2.5% KLD12 (SEQ ID NO:2) and 1.5% IEIK13 (SEQ ID NO:3) solutions were passed through selected pore sizes, and their apparent viscosity changes were evaluated. 2.5% KLD12 (SEQ ID NO:2) solutions passed through the shear-thinning unit with the pore sizes of 41 μm, 20 μm, and 5 μm.

[6] = 1%, 1 min after injection through 30-gauge needle
[7] = 1%, 20 min after injection through 30-gauge needle
[8] = 2.5%, 1 min after injection through 30-gauge needle
[9] = 2.5%, 20 min after injection through 30-gauge needle

Substance | rheological strength after autoclaving versus non-autoclaved [2] | Yield Stress ([3]; Conc. 1%) | Loss Modulus (G″) ([3]; Conc. 1%) | Storage Modulus (G′) ([3]; Conc. 1%) | Max. Viscosity (max η′) ([3]; Conc. 1%) | Yield Stress ([3]; Conc. 1.5%) | Loss Modulus (G″) ([3]; Conc. 1.5%) | Storage Modulus (G′) ([3]; Conc. 1.5%) | Max. Viscosity (max η′) ([3]; Conc. 1.5%) | Yield Stress ([3]; Conc. 2%) | Loss Modulus (G″) ([3]; Conc. 2%) | Storage Modulus (G′) ([3]; Conc. 2%) | Max. Viscosity (max η′) ([3]; Conc. 2%) | Yield Stress ([3]; Conc. 2.5%) | Loss Modulus (G″) ([3]; Conc. 2.5%) | Storage Modulus (G′) ([3]; Conc. 2.5%) | Max. Viscosity (max η′) ([3]; Conc. 2.5%) | Storage modulus [4, 8] | Storage modulus [4, 9] | Storage modulus ([4]; 2.5%, Before injection) | further results
Arg-Ala-Asp-Ala-Arg-Ala-Asp-Ala-Arg-Ala-Asp-Ala-Arg-Ala-Asp-Ala [RADA16] | dramatic decrease of rheological strength | 15.9 Pa | 12 Pa | 74 Pa | 2.3 Pa · s | 20.0 Pa | 30 Pa | 158 Pa | 3.4 Pa · s | 31.6 Pa | 39 Pa | 217 Pa | 4.0 Pa · s | 50.1 Pa | 53 Pa | 352 Pa | 5.6 Pa · s | 67 Pa | 196 Pa | 352 Pa | flow behaviour with increasing shear rate ([1]; 2.5% solution): typical shear thinning properties; yield stress (shear flow test) ([1]; 2.5% solution): about 40 Pa; Storage modulus [4, 6]: 6.8 Pa; Storage modulus [4, 7]: 40 Pa; Storage modulus ([4]; 1%, Before injection): 74 Pa
KLDLKLDLKLDL [KLD12, self-assembling peptide with repeats of KLDL, tested as solutions of 1 to 2.5%] |  | 25.1 Pa | 25 Pa | 140 Pa | 2.0 Pa · s | 39.8 Pa | 46 Pa | 292 Pa | 7.1 Pa · s | 79.4 Pa | 63 Pa | 573 Pa | 11.0 Pa · s | 100 Pa | 93 Pa | 846 Pa | 19.0 Pa · s | 57 Pa | 196 Pa | 846 Pa | apparent viscosity change after shear-thinning unit ([5]; 2.5% solution, pore size of 120 μm): remained too viscous to flow down; apparent viscosity change after shear-thinning unit ([5]; 2.5% solution, pore sizes of 41 μm, 20 μm, and 5 μm): decreased enough to flow down; times higher maximum viscosity than 2.5% RADA16 ([3]; 2% solution): 2 times; times higher maximum viscosity than 2.5% RADA16 ([3]; 2.5% solution): 3.4 times; Storage modulus [4, 6]: 0.68 Pa; Storage modulus [4, 7]: 59 Pa; Storage modulus ([4]; 1%, Before injection): 140 Pa
Ile-Glu-Ile-Lys-Ile-Glu-Ile-Lys-Ile-Glu-Ile-Lys-Ile [IEIK13] | almost identical rheological strength | 39.8 Pa | 77 Pa | 719 Pa | 12.9 Pa · s | 50.1 Pa | 94 Pa | 1092 Pa | 18.0 Pa · s |  | 138 Pa | 1708 Pa |  | 100 Pa | 174 Pa | 2213 Pa | 40.2 Pa · s | 632 Pa | 2248 Pa | 2213 Pa | flow behaviour with increasing shear rate ([1]; 1.5% solution): typical shear thinning properties; yield stress (shear flow test) ([1]; 1.5% solution): about 60 Pa; apparent viscosity change after shear-thinning unit ([5]; 1.5% solution, membrane with a pore size of 5 μm): reduced significantly; times higher maximum viscosity than 2.5% RADA16 ([3]; 1.5% solution): 3.2 times
